How the values were obtained:
ANGPTL3 gene [1] = assay: ANGPTL3 gRNA/SpCas9 editing in primary cynomolgus hepatocytes (Table 3); type: cell-based, cynomolgus monkey
Experimental: (§1) In set of experiments, PCSK9 gRNAs were co-transfected with an equivalent amount (1:1 ratio by weight) of in vitro transcribed commercially available SpCas9 mRNA MS002 purchased from TriLink Biotechnologies into primary human hepatocytes at 2500, 500, or 100 ng/RNA/mL and processed as described in detailed methods. Extracted genomic DNA was analyzed for gene editing at the target site with next-generation sequencing of PCR amplicons generated around the target sites. Samples were prepared using the Nextera XT DNA library preparation kit (Illumina) according to the manufacturer's protocol. Briefly, two rounds of PCR were performed first to amplify the region of interest and second to add DNA sequences required for next generation sequencing and sample identification to the initial product. The final amplicon was sequenced on the Illumina MiSeq instrument according to the manufacturer's protocol. A wide range of editing activities (Table 2) were observed. In a second set of experiments, ANGPTL3 gRNAs were co-transfected with an equivalent amount of in vitro transcribed SpCas9 mRNA (1:1 ratio by weight) into primary human hepatocytes and processed and analyzed similarly (Table 3).
(§2) Plating, culturing, and transfection of primary hepatocytes. Primary human liver hepatocytes (PHH) and primary cynomolgus liver hepatocytes (PCH) from BioIVT were cultured per the manufacturer's protocol. Briefly, primary human hepatocytes and primary cyno hepatocytes were obtained as frozen aliquots from BioIVT. Four lots of primary human hepatocytes, each derived from a de-identified individual donor, were used for the experiments: STL (main donor) was used for all experiments, including screening experiments and off-target experiments; HLY, JLP, and TLY were used for off-target experiments. The HFG lot of primary cyno hepatocytes were used for experiments. Following the manufacturer's instructions, cells were thawed and rinsed prior to plating in 24-well plates that had been coated with bovine collagen overnight, with a density of approximate 350,000 cells/well in INVITROGRO hepatocyte medium supplemented with TORPEDO antibiotic mix (BioIVT). The cells were thawed and resuspended in hepatocyte thawing medium followed by centrifugation at 100 g for 10 min at 4° C. The supernatant was discarded, and the pelleted cells resuspended in hepatocyte plating medium. Each vial contains approximately 5 million cells that were used for plating one 24-well plate. Plated cells were allowed to settle and adhere for 4-6 h in a tissue culture incubator at 37° C. under 5% CO2 atmosphere. After incubation, cells were checked for monolayer formation. The incubating media were then replaced with fresh hepatocyte maintenance media (complete INVITROGRO medium obtained from BioIVT, the cell line provider). The cells thus became ready for transfection. Each of the gRNAs were co-transfected with an equivalent amount of in vitro transcribed ABE8.8 mRNA (1:1 ratio by molecular weight) into primary human hepatocytes via MessengerMax reagent (Lipofectamine), using various dilutions to assess for editing activity at different concentrations of test article. MessengerMAX from Thermo Fisher is used for transfection. Solution A: desired amount of guide RNA is mixed with 1:1 wt ratio of mRNA in OptiMEM. Solution B: MessengerMAX in OptiMEM. After mixing solutions A and B, the mixture was incubated at room temperature for 20 min. 60 μL of the incubated solution was added dropwise to each cell wells. For protospacer sequences that were a perfect match to the corresponding cynomolgous monkey PCSK9 or ANGPTL3 gene sequence, each gRNA was also co-transfected with an equivalent amount of ABE8.8 mRNA (1:1 ratio by molecular weight) into primary cynomolgous hepatocytes, and followed the same transfection protocol. The cells were then allowed to remain at 37° C. for 3 days. […]

ANGPTL3 gene [2] = assay: ANGPTL3 gRNA/SpCas9 editing in primary human hepatocytes (Table 3); type: cell-based
Experimental: as §1, §2

Molecule	Cyno Primary Hepatocyte Editing % 100 ng/mL (ANGPTL3 gene [1]) [%]	Cyno Primary Hepatocyte Editing % 500 ng/ml (ANGPTL3 gene [1]) [%]	Human Primary Hepatocyte Editing % 100 ng/ml (ANGPTL3 gene [2]) [%]	Human Primary Hepatocyte Editing % 500 ng/mL (ANGPTL3 gene [2]) [%]
GA115: ANGPTL3 gRNA; protospacer AACATAGCAAATCTTGATTT (SEQ ID NO: 113) (nucleic acid, 2'-O-methyl at 1, 2, other sugars and backbone not given here; further chemistry not fully specified) guide: AACATAGCAAATCTTGATTTGTTTTAGAGCTAGAAATAGCAAGTTAAAATAAGGCTAGTCCGTTATCAACTTGAAAAAGTGGCACCGAGTCGGTGCTTTT	12.58	25.51	–	–
GA113: ANGPTL3 gRNA; protospacer ATTCTGGAGGAAATAACTAG (SEQ ID NO: 111) (nucleic acid, 2'-O-methyl at 1, 2, other sugars, backbone and T or U not given here; further chemistry not fully specified) guide: AUTCTGGAGGAAATAACTAGGTTTTAGAGCTAGAAATAGCAAGTTAAAATAAGGCTAGTCCGTTATCAACTTGAAAAAGTGGCACCGAGTCGGTGCTTTT	12.07	26.67	6.00	19.97
GA117: ANGPTL3 gRNA; protospacer ACTACAAGTCAAAAATGAAG (SEQ ID NO: 115) (nucleic acid, 2'-O-methyl at 1, 2, other sugars and backbone not given here; further chemistry not fully specified) guide: ACTACAAGTCAAAAATGAAGGTTTTAGAGCTAGAAATAGCAAGTTAAAATAAGGCTAGTCCGTTATCAACTTGAAAAAGTGGCACCGAGTCGGTGCTTTT	10.01	26.11	7.08	16.55
GA116: ANGPTL3 gRNA; protospacer GTAGAATTTTTTCTTCTAGG (SEQ ID NO: 114) (nucleic acid, 2'-O-methyl at 1, 2, other sugars, backbone and T or U not given here; further chemistry not fully specified) guide: GUAGAATTTTTTCTTCTAGGGTTTTAGAGCTAGAAATAGCAAGTTAAAATAAGGCTAGTCCGTTATCAACTTGAAAAAGTGGCACCGAGTCGGTGCTTTT	10.84	19.83	3.78	16.33
GA110: ANGPTL3 gRNA; protospacer GACCATGTCCCAACTGAAGG (SEQ ID NO: 108) (nucleic acid, 2'-O-methyl at 1, 2, other sugars and backbone not given here; further chemistry not fully specified) guide: GACCATGTCCCAACTGAAGGGTTTTAGAGCTAGAAATAGCAAGTTAAAATAAGGCTAGTCCGTTATCAACTTGAAAAAGTGGCACCGAGTCGGTGCTTTT	8.59	15.99	5.37	13.63
GA109: ANGPTL3 gRNA; protospacer GGCCTCCTTCAGTTGGGACA (SEQ ID NO: 107) (nucleic acid, 2'-O-methyl at 1, 2, other sugars and backbone not given here; further chemistry not fully specified) guide: GGCCTCCTTCAGTTGGGACAGTTTTAGAGCTAGAAATAGCAAGTTAAAATAAGGCTAGTCCGTTATCAACTTGAAAAAGTGGCACCGAGTCGGTGCTTTT	4.15	15.11	6.60	18.07
GA126: ANGPTL3 gRNA; protospacer GGAGTAGTTCTTGGTGCTCT (SEQ ID NO: 124) (nucleic acid, 2'-O-methyl at 1, 2, other sugars and backbone not given here; further chemistry not fully specified) guide: GGAGTAGTTCTTGGTGCTCTGTTTTAGAGCTAGAAATAGCAAGTTAAAATAAGGCTAGTCCGTTATCAACTTGAAAAAGTGGCACCGAGTCGGTGCTTTT	8.29	17.57	6.73	15.21
GA125: ANGPTL3 gRNA; protospacer TGATGGTAAGACACTTTGGT (SEQ ID NO: 123) (nucleic acid, 2'-O-methyl at 1, 2, other sugars, backbone and T or U not given here; further chemistry not fully specified) guide: UGATGGTAAGACACTTTGGTGTTTTAGAGCTAGAAATAGCAAGTTAAAATAAGGCTAGTCCGTTATCAACTTGAAAAAGTGGCACCGAGTCGGTGCTTTT	12.91	19.72	5.04	16.27
GA111: ANGPTL3 gRNA; protospacer GCCAATGGCCTCCTTCAGTT (SEQ ID NO: 109) (nucleic acid, 2'-O-methyl at 1, 2, other sugars and backbone not given here; further chemistry not fully specified) guide: GCCAATGGCCTCCTTCAGTTGTTTTAGAGCTAGAAATAGCAAGTTAAAATAAGGCTAGTCCGTTATCAACTTGAAAAAGTGGCACCGAGTCGGTGCTTTT	22.61	28.98	10.72	24.08
GA108: ANGPTL3 gRNA; protospacer TCCCAACTGAAGGAGGCCAT (SEQ ID NO: 106) (nucleic acid, 2'-O-methyl at 1, 2, other sugars, backbone and T or U not given here; further chemistry not fully specified) guide: UCCCAACTGAAGGAGGCCATGTTTTAGAGCTAGAAATAGCAAGTTAAAATAAGGCTAGTCCGTTATCAACTTGAAAAAGTGGCACCGAGTCGGTGCTTTT	4.11	15.49	4.95	19.43
GA122: ANGPTL3 gRNA; protospacer CTTTTATTTGACTATGCTGT (SEQ ID NO: 120) (nucleic acid, 2'-O-methyl at 1, 2, other sugars, backbone and T or U not given here; further chemistry not fully specified) guide: CUTTTATTTGACTATGCTGTGTTTTAGAGCTAGAAATAGCAAGTTAAAATAAGGCTAGTCCGTTATCAACTTGAAAAAGTGGCACCGAGTCGGTGCTTTT	7.28	16.76	4.45	13.82
GA129: ANGPTL3 gRNA; protospacer AGTTCTTGGTGCTCTTGGCT (SEQ ID NO: 127) (nucleic acid, 2'-O-methyl at 1, 2, other sugars and backbone not given here; further chemistry not fully specified) guide: AGTTCTTGGTGCTCTTGGCTGTTTTAGAGCTAGAAATAGCAAGTTAAAATAAGGCTAGTCCGTTATCAACTTGAAAAAGTGGCACCGAGTCGGTGCTTTT	5.36	20.06	–	–

— patent publication US20250152746A1, “BASE EDITING OF ANGPTL3 AND METHODS OF USING SAME FOR TREATMENT OF DISEASE” (Verve Therapeutics, Inc., priority 2020, published 2025)
